Laboratory results from paper PMC10393190 (Genes & Development, 2022).
Like-named read-outs stand apart in the source and are kept apart here.

What was measured:
[1] = molecular target: T1, Mer2 (Saccharomyces cerevisiae, UniProt P21651 1-314); experiment: EMSA
T1 sequence: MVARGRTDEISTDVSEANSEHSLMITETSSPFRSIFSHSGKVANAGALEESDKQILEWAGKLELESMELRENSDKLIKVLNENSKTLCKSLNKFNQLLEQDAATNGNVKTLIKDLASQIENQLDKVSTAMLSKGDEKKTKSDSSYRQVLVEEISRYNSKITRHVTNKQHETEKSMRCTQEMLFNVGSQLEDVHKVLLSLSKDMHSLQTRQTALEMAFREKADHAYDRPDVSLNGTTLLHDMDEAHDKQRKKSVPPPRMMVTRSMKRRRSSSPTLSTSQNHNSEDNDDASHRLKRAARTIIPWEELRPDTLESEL

[2] = molecular target: T2, Rec114;Mei4 (Saccharomyces cerevisiae;Saccharomyces …, UniProt P32841;P29467 1-428;1-408, |); experiment: competition
T2 sequence 1: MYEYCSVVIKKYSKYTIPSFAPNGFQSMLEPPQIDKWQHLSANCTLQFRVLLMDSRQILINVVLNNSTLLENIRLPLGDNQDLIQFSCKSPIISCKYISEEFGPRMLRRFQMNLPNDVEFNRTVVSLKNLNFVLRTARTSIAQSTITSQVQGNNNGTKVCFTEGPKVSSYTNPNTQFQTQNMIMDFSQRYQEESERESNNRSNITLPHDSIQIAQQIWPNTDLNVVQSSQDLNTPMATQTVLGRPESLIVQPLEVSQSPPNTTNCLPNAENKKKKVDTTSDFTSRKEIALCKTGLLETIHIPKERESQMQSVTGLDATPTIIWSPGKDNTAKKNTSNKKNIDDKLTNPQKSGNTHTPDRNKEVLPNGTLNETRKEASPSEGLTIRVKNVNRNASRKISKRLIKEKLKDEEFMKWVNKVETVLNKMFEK
T2 sequence 2: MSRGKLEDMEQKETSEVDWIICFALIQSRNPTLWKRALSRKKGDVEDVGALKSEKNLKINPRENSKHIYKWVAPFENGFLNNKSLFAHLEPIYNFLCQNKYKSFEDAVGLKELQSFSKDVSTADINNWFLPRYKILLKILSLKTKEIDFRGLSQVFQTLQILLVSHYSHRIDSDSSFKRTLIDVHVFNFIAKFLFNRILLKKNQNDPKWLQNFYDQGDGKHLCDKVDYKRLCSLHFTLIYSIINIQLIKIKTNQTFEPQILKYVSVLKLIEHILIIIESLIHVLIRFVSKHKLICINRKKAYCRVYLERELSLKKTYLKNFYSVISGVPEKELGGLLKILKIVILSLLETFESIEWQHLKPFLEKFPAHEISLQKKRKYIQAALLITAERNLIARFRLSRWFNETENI

[3] = molecular target: T3, IHO1 coiled-coil domain (Mus musculus, UniProt Q6PDM4 109-267); experiment: competition
T3 sequence: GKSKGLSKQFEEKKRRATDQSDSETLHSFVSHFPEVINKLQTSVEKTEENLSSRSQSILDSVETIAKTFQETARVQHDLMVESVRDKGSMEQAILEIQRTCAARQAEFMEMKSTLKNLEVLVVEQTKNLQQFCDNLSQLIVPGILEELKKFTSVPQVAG

[4] = molecular target: T4, Rec15 coiled-coil domain (Schizosaccharomyces pombe, UniProt Q09094 1-160); experiment: competition
T4 sequence: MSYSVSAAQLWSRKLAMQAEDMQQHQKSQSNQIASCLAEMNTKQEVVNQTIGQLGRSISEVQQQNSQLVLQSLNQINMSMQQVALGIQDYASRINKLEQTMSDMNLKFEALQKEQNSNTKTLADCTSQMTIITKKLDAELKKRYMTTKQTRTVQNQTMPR

[5] = molecular target: T5, REC114;MEI4 (Mus musculus;Mus musculus, UniProt Q9CWH4;Q8BRM6 1-259;1-389, |); experiment: competition
T5 sequence 1: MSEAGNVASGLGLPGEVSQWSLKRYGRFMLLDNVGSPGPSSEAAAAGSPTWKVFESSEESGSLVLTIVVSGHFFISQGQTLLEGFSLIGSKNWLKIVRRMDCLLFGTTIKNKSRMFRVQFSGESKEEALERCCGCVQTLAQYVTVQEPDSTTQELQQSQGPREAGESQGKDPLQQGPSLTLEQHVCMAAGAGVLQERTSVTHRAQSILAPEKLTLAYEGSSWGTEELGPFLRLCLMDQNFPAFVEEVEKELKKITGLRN
T5 sequence 2: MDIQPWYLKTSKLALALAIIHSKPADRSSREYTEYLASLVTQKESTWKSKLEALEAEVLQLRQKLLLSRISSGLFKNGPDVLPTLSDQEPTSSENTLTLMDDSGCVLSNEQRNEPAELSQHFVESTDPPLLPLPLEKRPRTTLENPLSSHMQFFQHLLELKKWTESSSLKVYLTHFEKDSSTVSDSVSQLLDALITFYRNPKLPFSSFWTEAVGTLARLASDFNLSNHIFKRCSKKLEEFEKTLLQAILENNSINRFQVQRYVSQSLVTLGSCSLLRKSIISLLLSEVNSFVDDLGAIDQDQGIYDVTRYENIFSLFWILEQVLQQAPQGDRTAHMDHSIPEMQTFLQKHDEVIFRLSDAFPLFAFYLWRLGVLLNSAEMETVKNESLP

[6] = molecular target: T1, Mer2; experiment: EMSA; remark: listed apart in the source
[7] = molecular target: T1, Mer2; experiment: EMSA; remark: listed apart in the source

B1: HJ40 (cb095/cb096/cb097/cb098) (structured_DNA)
DNA 1: CTAGTATAGAGCCGGCGCGCCATGTCTAGATAGCGTTAGGTCTGCCGAATAGTACTACTCGGATCCCGAGCGAACCACGC
DNA 2: GCGTGGTTCGCTCGGGATCCGAGTAGTACTATTCGGCAGAGGATTCGAATAGGCCTAATCGAATTCCGCCATCGATGCAC
DNA 3: GTGCATCGATGGCGGAATTCGATTAGGCCTATTCGAATCCAGACGCGAGTAGATCTTCACGGTACCCGCGGTTACCCGTG
DNA 4: CACGGGTAACCGCGGGTACCGTGAAGATCTACTCGCGTCTCCTAACGCTATCTAGACATGGCGCGCCGGCTCTATACTAG
With B1 the “apparent K (half saturation)” value [1] was 9.2 ± 1 nM, the binding signal [2] was ~10 fold better competitor than dsDNA and the binding result [3] was “binds”. The binding result [4] was “binds” and the binding signal [5] was > 20 fold higher affinity than dsDNA.

B2: 3' flaps (cb095/cb098/cb122) (structured_DNA)
DNA 1: CTAGTATAGAGCCGGCGCGCCATGTCTAGATAGCGTTAGGTCTGCCGAATAGTACTACTCGGATCCCGAGCGAACCACGC
DNA 2: CACGGGTAACCGCGGGTACCGTGAAGATCTACTCGCGTCTCCTAACGCTATCTAGACATGGCGCGCCGGCTCTATACTAG
DNA 3: AGACGCGAGTAGATCTTCACGGTACCCGCGGTTACCCGTG
With B2 the “apparent K (half saturation)” value [6] was 34.4 ± 25.2 nM.

B3: Fork (cb095/cb098/cb122/cb120) (structured_DNA)
DNA 1: CTAGTATAGAGCCGGCGCGCCATGTCTAGATAGCGTTAGGTCTGCCGAATAGTACTACTCGGATCCCGAGCGAACCACGC
DNA 2: CACGGGTAACCGCGGGTACCGTGAAGATCTACTCGCGTCTCCTAACGCTATCTAGACATGGCGCGCCGGCTCTATACTAG
DNA 3: AGACGCGAGTAGATCTTCACGGTACCCGCGGTTACCCGTG
DNA 4: GCGTGGTTCGCTCGGGATCCGAGTAGTACTATTCGGCAGA
With B3 the “apparent K (half saturation)” value [7] was 24.4 ± 5.5 nM.
